Measurements reported in US20240336947.

Biological target: deglucosylated type IV collagen

B1: R699, mimiviral collagen galactosylhydroxylysyl glucosyltransferase (GGT) (protein)
chain: MEQSNNDDNLLVLGIGISVHKTDGVLRFEKYCQAHNLQYMIVGEGKKWNGGNLESEAGGGQKINELLIALESIKDNKLIVVCDTYDLIPLSGPEEILRKYRFLTPDNKVVFSSELYCWPDASLVERYPKVDTKYKYLNSGAFMGYRDDIYEMIKNGVKDRDDDQLFFSIKFIETDKIVLDYKCELFQAMYRCNSDLVVHKNRIFNGYTNSYPVFAHGNGPAKKLLNHMEGYFMTEPIDGSSNTINTFKLDNEPKVFFALYVDSNDLSALKQFLGKVASIQYGNKVIYLYDRSDNEQNRKLIQISYPNYHTGVTKYVFDDFKKSDAQFYFLLEQNCIITKKDILHELIMQVKDNHRVISPMIGYEQNSTRTNFWGDIEDGYYKRSENYLDLAKHKVRGLWNVPYVYGVILMHESVVRNWDLSMVKYNDKDMDLCFSLRKHTIFMYMINNNNYGYMV
  glucosylation of type IV collagen detected by LC-MS with UDP-[UL-13C6]-glucose: R699 (FIG. 4C,4D) glucosylates collagen peptidyl galactosylhydroxylysine to [13C6]-glucosylgalactosylhydroxylysine
